T1: phyB-N-GST (Arabidopsis thaliana, UniProt P14713 1-645)
T1 construct: phytochrome B (phyB), Arabidopsis thaliana, N-terminus, amino acids 1-645; also called N-terminus of phytochrome B; source: E. coli, purified (glutathione resin)
T1 sequence (looked up): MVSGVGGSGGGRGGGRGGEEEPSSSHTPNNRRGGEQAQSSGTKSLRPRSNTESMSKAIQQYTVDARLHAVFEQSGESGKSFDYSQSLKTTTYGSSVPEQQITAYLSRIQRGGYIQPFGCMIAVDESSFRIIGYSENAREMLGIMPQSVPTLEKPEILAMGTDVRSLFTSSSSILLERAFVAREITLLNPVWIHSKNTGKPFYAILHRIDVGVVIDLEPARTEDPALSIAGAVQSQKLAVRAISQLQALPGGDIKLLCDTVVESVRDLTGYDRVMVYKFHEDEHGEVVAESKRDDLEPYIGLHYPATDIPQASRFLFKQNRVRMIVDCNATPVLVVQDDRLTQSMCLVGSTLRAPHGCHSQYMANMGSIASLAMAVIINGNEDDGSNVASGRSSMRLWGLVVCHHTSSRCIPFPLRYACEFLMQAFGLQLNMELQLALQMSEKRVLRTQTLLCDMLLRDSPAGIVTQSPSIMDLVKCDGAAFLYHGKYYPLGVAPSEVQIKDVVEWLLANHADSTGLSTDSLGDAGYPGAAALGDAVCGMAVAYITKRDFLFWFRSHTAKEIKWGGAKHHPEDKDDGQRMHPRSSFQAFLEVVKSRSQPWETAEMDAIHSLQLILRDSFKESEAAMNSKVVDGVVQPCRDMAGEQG

T2: phyB-C-GST (Arabidopsis thaliana, UniProt P14713 646-1172)
T2 construct: phytochrome B (phyB), Arabidopsis thaliana, C-terminus, amino acids 646-1,172; Cloned into pGEX-4T-1; also called C-terminus of phytochrome B; source: E. coli BL21 (DE3) pLysS, purified (glutathione resin)
T2 sequence (looked up): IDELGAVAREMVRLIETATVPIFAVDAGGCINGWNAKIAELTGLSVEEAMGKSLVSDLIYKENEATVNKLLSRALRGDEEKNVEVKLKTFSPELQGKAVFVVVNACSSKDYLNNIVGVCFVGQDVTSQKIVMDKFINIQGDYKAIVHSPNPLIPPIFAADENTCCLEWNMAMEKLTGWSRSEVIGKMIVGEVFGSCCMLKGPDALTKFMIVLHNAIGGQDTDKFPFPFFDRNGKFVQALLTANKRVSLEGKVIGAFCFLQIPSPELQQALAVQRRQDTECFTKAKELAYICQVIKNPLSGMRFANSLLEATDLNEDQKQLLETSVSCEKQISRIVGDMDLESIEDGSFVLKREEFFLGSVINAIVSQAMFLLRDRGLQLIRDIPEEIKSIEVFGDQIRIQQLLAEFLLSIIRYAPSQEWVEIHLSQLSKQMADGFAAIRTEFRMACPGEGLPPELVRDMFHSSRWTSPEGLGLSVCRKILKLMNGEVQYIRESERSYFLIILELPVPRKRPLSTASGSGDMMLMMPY

B1: CRY1-C-GST (domain or fragment, Arabidopsis thaliana, UniProt Q43125 491-681, looked up)
chain: MWQLEAASRAAIENGSEEGLGDSAEVEEAPIEFPRDITMEETEPTRLNPNRRYEDQMVPSITSSLIRPEEDEESSLNLRNSVGDSRAEVPRNMVNTNQAQQRRAEPASNQVTAMIPEFNIRIVAESTEDSTAESSSSGRRERSGGIVPEWSPGYSEQFPSEENGIGGGSTTSSYLQNHHEILNWRRLSQTG
notes: cryptochrome 1 (CRY1), Arabidopsis thaliana, C-terminus, amino acids 491-681; Cloned into pGEX-4T-1; also called C-terminus of cryptochrome 1; source: E. coli BL21 (DE3) pLysS, purified (glutathione resin)
B2: SINAT2-His (natural protein, Arabidopsis thaliana, UniProt Q9M2P4 1-308, looked up)
chain: MAPGGSALKEVMESNSTGMDYEVKTAKVEVNNNKPTKPGSAGIGKYGIHSNNGVYELLECPVCTNLMYPPIHQCPNGHTLCSNCKLRVQNTCPTCRYELGNIRCLALEKVAESLEVPCRYQNLGCHDIFPYYSKLKHEQHCRFRPYTCPYAGSECSVTGDIPTLVVHLKDDHKVDMHDGCTFNHRYVKSNPHEVENATWMLTVFNCFGRQFCLHFEAFQLGMAPVYMAFLRFMGDENEAKKFSYSLEVGAHGRKLTWQGIPRSIRDSHRKVRDSQDGLIIPRNLALYFSGGDRQELKLRVTGRIWKEE
notes: SINAT2 (SINA of Arabidopsis thaliana 2), At3g58040; Printed both as SINAT2-His (pull-down) and His-SINAT2 (ubiquitination assay); also called His-SINAT2

Experiments:
Assay in all cases: pull-down; in vitro pull-down: about 5 ug GST-tagged protein on glutathione resin, about 2 ug His-tagged protein added, 1 h at 4°C; washed with 1x PBS, 0.1% Triton X-100; anti-His blot
Conditions in all cases: both partners purified
[1] = target: B2
[2] = target: T1, phyB-N-GST
[3] = target: T2, phyB-C-GST
[4] = target: T3, CRY1-N-GST (Arabidopsis thaliana, UniProt Q43125 1-490)
T3 construct: cryptochrome 1 (CRY1), Arabidopsis thaliana, N-terminus, amino acids 1-490; Cloned into pGEX-4T-1; also called N-terminus of cryptochrome 1; source: E. coli BL21 (DE3) pLysS, purified (glutathione resin)
T3 sequence (Q43125 1-490): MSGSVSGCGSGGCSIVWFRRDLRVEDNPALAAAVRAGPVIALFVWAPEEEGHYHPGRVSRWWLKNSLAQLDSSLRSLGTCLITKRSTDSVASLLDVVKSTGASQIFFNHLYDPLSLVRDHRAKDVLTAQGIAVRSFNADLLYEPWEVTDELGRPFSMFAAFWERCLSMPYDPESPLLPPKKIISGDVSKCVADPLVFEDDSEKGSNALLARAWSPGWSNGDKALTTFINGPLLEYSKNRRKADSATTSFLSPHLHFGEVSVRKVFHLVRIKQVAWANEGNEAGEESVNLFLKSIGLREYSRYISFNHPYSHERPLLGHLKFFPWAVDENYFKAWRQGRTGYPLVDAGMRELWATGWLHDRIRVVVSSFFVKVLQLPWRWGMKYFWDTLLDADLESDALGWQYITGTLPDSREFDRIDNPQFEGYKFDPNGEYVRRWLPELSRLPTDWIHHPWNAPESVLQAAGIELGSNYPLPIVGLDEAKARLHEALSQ

| Binder | binding result [1] | binding result [2] | binding result [3] | binding result [4] |
| --- | --- | --- | --- | --- |
| B1 | binds |  |  |  |
| B2 |  | binds | binds | binds |
